The data set deals with the molecule itself. Kind of data set: aggregation of the purified protein in solution (visible precipitation; aggregates examined by Congo red, CD, ATR-FTIR, TEM, WAXS); protein alone at 20 µM in 1x PBS pH 7.4, 37°C, 3 h, kept at 4°C (legend of Figure 2C: 50 µM).

B1: Rubber Elongation Factor (REF), recombinant 6His-REF (natural protein, Hevea brasiliensis, UniProt P15252 1-138, looked up)
chain: MAEDEDNQQGQGEGLKYLGFVQDAATYAVTTFSNVYLFAKDKSGPLQPGVDIIEGPVKNVAVPLYNRFSYIPNGALKFVDSTVVASVTIIDRSLPPIVKDASIQVVSAIRAAPEAARSLASSLPGQTKILAKVFYGEN
notes: gene synthesised after codon optimisation from GenBank X56535; No removal of the tag is described, and the same preparation is detected by anti-His antibody in the lipid dot blots; also called Hevb1; HbREF; source: E. coli BL21 (DE3) pLysS Gold, inclusion bodies, purified (Ni-NTA in 8 M urea, dialysed against buffer A); not shown: His6, N-terminal, kept
Regarding B1, the binding result is listed as “binds”.

(Values after article PMC3485013, “Rubber Elongation Factor (REF), a Major Allergen Component in Hevea brasiliensis Latex Has Amyloid Properties” (PLoS ONE, 2012).)
